Laboratory results: paper PMC6430685 (Nature chemical biology, 2019)
No end group written: not given here. *: point of attachment. FITC = O=C1OC2(c3ccc(O)cc3Oc3cc(O)ccc32)c2ccc(NC(=S)*)cc21; Ahx = NCCCCCC(=O)O

Target: Human full-length (1-192) wild type BAX (human, UniProt Q07812 1-192)
Assay: fluorescence polarisation

Sequence of Human full-length (1-192) wild type BAX (Q07812 whole entry): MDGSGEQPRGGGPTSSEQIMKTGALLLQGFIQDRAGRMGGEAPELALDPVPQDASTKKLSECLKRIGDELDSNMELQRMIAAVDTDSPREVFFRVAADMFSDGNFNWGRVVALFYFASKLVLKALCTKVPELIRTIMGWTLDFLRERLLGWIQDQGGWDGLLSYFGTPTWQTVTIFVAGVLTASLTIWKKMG

{FITC-Ahx}-CEALKKALRRHRFLWQRRQRA [vMIA peptide, FITC-Ahx-CEALKKALRRHRFLWQRRQRA]: binds.
